According to article PMC4437529:

What was measured:
Experiment in all cases: purified protein
Format in all cases: biochemical, Trichomonas vaginalis
Details in all cases: NADPH co-substrate, 100 mM potassium phosphate pH 5.5, 37 °C
[1] = tested on: Cc1cc2nc3c(=O)[nH]c(=O)nc-3n(C[C@H](O)[C@H](O)[C@H](O)COP(=O)(O)O)c2cc1C
[2] = tested on: Cc1cc2nc3c(=O)[nH]c(=O)nc-3n(C[C@H](O)[C@H](O)[C@H](O)COP(=O)(O)OP(=O)(O)OC[C@H]3O[C@@H](n4cnc5c(N)ncnc54)[C@H](O)[C@@H]3O)c2cc1C
[3] = tested on: Cc1cc2nc3c(=O)[nH]c(=O)nc-3n(C[C@H](O)[C@H](O)[C@H](O)CO)c2cc1C

Substance	Km [1] [µM]	Km [2] [µM]	Km [3] [µM]
Flavin reductase 1 (FR1) (Trichomonas vaginalis G3)	10 ± 1.4	16.5 ± 2.5	
Flavin reductase 5 (FR5) (Trichomonas vaginalis G3)	186.9 ± 30.3	267.4 ± 21.6	94.4 ± 11.5
Flavin reductase 6 (FR6) (Trichomonas vaginalis G3)	160 ± 23.9	192.1 ± 12.2	97.5 ± 28.8
